How the values were obtained:
[1] = tested on: Lewis lung carcinoma (LLC) tumors; experiment: Primary tumor growth of Lewis lung carcinoma (LLC) in mice; assay type: in vivo; settings: 12 mg/kg per day
Experimental: (§1) To ensure that these observations were not limited to the tumor model chosen, hep III was used to treat mice bearing Lewis lung carcinoma (LLC) tumors. Growth curves of primary tumor growth for LLC tumor in C57BL/6 mice treated with either PBS or heparinase III were plotted. 4×10^5 log phase LLC cells were injected subcutaneously to the flank of mice on day 1. Daily injection of 0.1 ml of either PBS or 2 mg/ml recombinantly expressed heparinase III started at the day 4 and continued throughout the experiment. At day 8, osmotic pumps (100 μl capacity delivering at 0.5 μl per hour) containing PBS or 3 mg/ml hep III were implanted subcutaneously at a place remote from the tumor site. Mice were sacrificed at day 20. Lung metastasis of LLC cells injected through tail vein were quantitated as number of lung nodules. Log growth LLC cells were trypsinized for 30 seconds and resuspended in PBS to a final concentration of 1×10^6 per ml. For experimental group, cells were incubated with […] hep III for 30 minutes at 37° C. before injecting 0.2 ml of cell suspension via tail vein. Mice were euthanized 12 days after tail vein injections, lungs were harvested, rinsed in tap water and fixed overnight in Bouin's solution. The number of nodules on lung surface was counted with the aid of a dissection microscope.

Erk-1, 2 [2] = experiment: Total and phosphorylated Erk-1, 2 in heparinase-treated B16BL6 tumor; design: species or system mice; settings: mouse, in vivo
Experimental: e. Level of total and phosphorylated Erk-1, 2 in heparinase-treated B16BL6 tumor. Tumor homogenates were prepared and processed as described in c. The supernatant was used for total protein concentration assay and immunoblotting. The immunoblot was detected as described in a.

B16BL6 melanoma cells = experiment: Lung metastasis of heparinase treated B16BL6 cells after tail vein injection; assay type: in vivo, mice; settings: cells treated 30 min at 37° C. before tail vein injection; 13 days
Experimental: We next investigated the ability of heparinase treated B16BL6 melanoma cells to metastasize to the lungs. B16BL6 cells in log growth phase were briefly trypsinized and resuspended in PBS to a final concentration of 1×10^6 per ml. Prior to injection, cells were treated with either PBS, hep I […] or hep III […] for 30 min. at 37° C. 0.2 ml cell suspensions (2×10^5 cells) were injected slowly via tail vein. Mice were sacrificed 13 days later and lungs were harvested, rinsed with tap water. The number of nodules on lung surface were counted with the assistance of a dissection microscope. * indicates p<0.05 (Mann-Whitney test).

LLC cells = experiment: Lung metastasis of LLC cells injected through tail vein; assay type: in vivo, mice; settings: cells incubated with enzyme before tail vein injection
Experimental: as §1

Erk-1, 2 [3] = experiment: Erk-1, 2 activation in FGF2 stimulated B16BL6 cells (immunoblot); assay type: cell-based; settings: enzyme 200 nM 30 min before 50 ng/ml FGF2
Experimental: a. Methods: B16BL6 cells in 10 cm culture dishes were serum starved for 48 hours before stimulation with 50 ng/ml FGF2. Cells were stimulated for 20 minutes before whole cell lysates were prepared with 1 ml modified RIPA buffer containing various enzyme inhibitors (50 mM Tris-HCl, pH 7.4, 1% NP-40, 0.25% Na-deoxycholate, 150 mM NaCl, 1 mM EDTA, 1 mM PMSF, 1 μg/ml aprotinin, leupeptin, and pepstatin, 1 mM activated Na3VO4, 1 mM NaF). Protein concentration in the lysate was determined using the Bio-Rad protein assay kit (BioRad) and adjusted accordingly for electrophoresis analysis. For the heparinase treated groups, cells were treated with either hep I or hep III (200 nM) for 30 min at 37° C. prior to addition of FGF2. The immunoblot was probed with anti-Erk-1, 2 or anti-phospho-Erk-1, 2 antibody (New England Biolabs; MA) and detected by anti-rabbit IgG conjugated to HRP using SuperSignal West Pico Chemiluminescent substrate (Pierce, Ill.).

Akt = Akt activation in B16BL6 tumor; design: species or system mice; settings: mouse, in vivo
Experimental: f. Effect of heparinase treatment on Akt activation. The primary tumor was treated and processed as described above. Akt antibody and phospho-Akt antibody from New England Biolabs were used to probe the immunoblot.

B16BL6 melanoma = experiment: Histological examination of tumor samples (apoptosis, TdT labeling); assay type: in vivo, mice
Experimental: Immunohistochemistry was done as described (Parangi et al., 1996; O'Reilly et al., 1994) with minor modifications. Briefly, tumor tissues were fixed in either 4% (vol/vol) formaldehyde overnight for von Willebrand factor (vWF) staining and terminal deoxynucleotide transferase (TdT) labeling or in Glyo-Fixx solution overnight for Ki-67 nuclear antigen staining. Tissues were embedded in paraffin according to standard histological procedures. For vWF staining, sections (5 μm thick) were incubated with 0.2 N HCl for 10 min. autoclaved in a Coplin jar immersed with Target retrieval Solution (Dako) for 15 min. and permeabilized with 2 μg/ml proteinase K at 37° C. for 15 min. Sections were incubated with rabbit anti-human vWF antibody coupled with horseradish peroxidase (HRP) (Dako). Positive staining was detected by substrate reaction with diaminobenzidine. Sections were counterstained with Gill's hematoxylin and mounted in Permount (Fisher). […] Capillary density was determined by counting the number of vWF-positive capillaries per high power field (HPF, ×200). The proliferative and apoptotic indices of tumor cells within areas of viable tumor were estimated from the percentage of cells scored under a light microscope at 400-fold magnification. A minimum of 2000 cells were counted in each animal. # indicates standard error.

B16BL6 cells = experiment: Growth in mice of B16BL6 cells after heparinase removal of the HLGAG coat; assay type: in vivo; settings: HLGAG coat removed
Text: There are two possible mechanisms by which heparinase may be acting on tumor cells. For instance, heparinase III treatment of cells may result in cells losing their unique surface HLGAG coat and this directly or indirectly may impinge on their ability to grow or metastasize. On the other hand heparinase III treatment of cells may also result in the generation of distinct HLGAG fragments, and these fragments could then directly or indirectly modulate tumor cell function. It was thought that heparinase III may function though either one of these mechanisms or through some combination of these mechanisms. To investigate the mechanisms of action further, we treated B16BL6 cells with either heparinases I or III, to remove the HLGAG coat on the tumor cell surface.
In further support of this conclusion ex vivo digestion of the HLGAG coat present on tumor cells with either heparinase, followed by centrifugation and resuspension in PBS to remove the enzyme and HLGAG fragments released from the cell surface, prior to in vivo injection results in the cells being functionally identical to controls. Thus the released tumor cell HLGAG fragments appear to play the key role in modulating tumor growth and metastasis.

level of activated Erk-1, 2 in primary tumor (Erk-1, 2 [2]): lower level of activated Erk-1, 2
B1: heparinase III: HLGAG degrading enzyme from Flavobacterium heparinum (EC 4.2.2.8), SEQ ID NO:2; cleaves heparan sulfate (protein, listed as Pedobacter heparinus)
chain: MTTKIFKRIIVFAVIALSSGNILAQSSSITRKDFDHINLEYSGLEKVNKAVAAGNYDDAAKALLAYYREKSKAREPDFSNAEKPADIRQPIDKVTREMADKALVHQFQPHKGYGYFDYGKDINWQMWPVKDNEVRWQLHRVKWWQAMALVYHATGDEKYAREWVYQYSDWARKNPLGLSQDNDKFVWRPLEVSDRVQSLPPTFSLFVNSPAFTPAFLMEFLNSYHQQADYLSTHYAEQGNHRLFEAQRNLFAGVSFPEFKDSPRWRQTGISVLNTEIKKQVYADGMQFELSPIYHVAAIDIFLKAYGSAKRVNLEKEFPQSYVQTVENMIMALISISLPDYNTPMFGDSWITDKNFRMAQFASWARVFPANQAIKYFATDGKQGKAPNFLSKALSNAGFYTFRSGWDKNATVMVLKASPPGEFHAQPDNGTFELFIKGRNFTPDAGVFVYSGDEAIMKLRNWYRQTRIHSTLTLDNQNMVITKARQNKWETGNNLDVLTYTNPSYPNLDHQRSVLFINKKYFLVIDRAIGEATGNLGVHWQLKEDSNPVFDKTKNRVYTTYRDGNNLMIQSLNADRTSLNEEEGKVSYVYNKELKRPAFVFEKPKKNAGTQNFVSIVYPYDGQKAPEISIRENKGNDFEKGKLNLTLTINGKQQLVLVP
LLC tumor growth [1]: inhibition in tumor growth | ability of treated B16BL6 cells to metastasize to the lungs compared to PBS treated cells (B16BL6 melanoma cells): significantly less able to metastasize to the lungs | colonization of lungs by LLC cells (LLC cells): inhibited the LLC cells to colonize in the lungs | Erk-1, 2 activation upon FGF2 stimulation (Erk-1, 2 [3]): decreased Erk-1, 2 activation | activation of Akt in tumor (Akt): no change in activation of Akt | apoptosis in tumor samples, enzyme treated tumors (B16BL6 melanoma): increased apoptosis | ability of treated B16BL6 cells to grow in mice compared to untreated cells (B16BL6 cells): no effect

Reference: patent publication US7939292B2, “Modified heparinase III and methods of sequencing therewith” (Massachusetts Institute of Technology, priority 2000, dated 2011)
